Here are results for 1 substance from patent US20100330066A1.

This test addresses murine BAFF (murine) (UniProt Q9WU72). Nature of the test: cell-based or functional assay.
Sequence of UniProt Q9WU72 (Q9WU72 127-309 limits assumed): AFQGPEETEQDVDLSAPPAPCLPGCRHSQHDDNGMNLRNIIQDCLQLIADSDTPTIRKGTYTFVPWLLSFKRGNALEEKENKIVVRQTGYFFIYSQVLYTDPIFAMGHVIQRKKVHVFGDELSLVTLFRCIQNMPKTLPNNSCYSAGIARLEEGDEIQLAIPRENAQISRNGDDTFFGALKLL

The substance “BAFF-R:Fc (BAFF-R Fc fusion protein) (from UniProt Q96RJ3 2-71)” returned a B cell surface IgG2a/b expression (MFI, flow cytometry) in wildtype mice after BAFF-R:Fc treatment of 1.7 fold and an NF-κB2 transcription in spleen of wildtype mice, 2 days after i.p. BAFF-R:Fc (Affymetrix microarray) of 1.82 fold.
